Laboratory results as given in the supplement of paper PMC11908140.

B1: library; numbered along this chain (parent)
chain: MRKPRAAVGSGHRKQAASQEGRQKHAKNNSQAKPSACDGLARQPEEVVLQASVSSYHLFRDVAEVTAFRGSLLSWYDQEKRDLPWRRRAEDEMDLDRRAYAVWVSEVMLQQTQVATVINYYTGWMQKWPTLQDLASASLEEVNQLWAGLGYYSRGRRLQEGARKVVEELGGHMPRTAETLQQLLPGVGRYTAGAIASIAFGQATGVVDGNVARVLCRVRAIGADPSSTLVSQQLWGLAQQLVDPARPGDFNQAAMELGATVCTPQRPLCSQCPVESLCRARQRVEQEQLLASGSLSGSPDVEECAPNTGQCHLCLPPSEPWDQTLGVVNFPRKASRKPPREESSATCVLEQPGALGAQILLVQRPNSGLLAGLWEFPSVTWEPSEQLQRKALLQELQRWAGPLPATHLRHLGEVVHTFSHIKLTYQVYGLALEGQTPVTTVPPGARWLTQEEFHTAAVSTAMKKVFRVYQGQQPGTCMGSKRSQVSSPCSRKKPRMGQQVLDNFFRSHISTDAHSLNSAAQ

Variants of: B1
Experiment: 8OG:A repair function score (normalized; synonymous = 0, nonsense = -1) (normalized log-likelihood score); higher = more repair activity (WT-like)
Details: with 8OG:A DNA repair reporter (GFP) in HEK-293 MUTYH KO cells
In short: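 After 72 h, viable mCherry+ cells were split into GFP+ (repair) and GFP− bins in three replicates per tile. These cells were MUTYH knockout HEK-293 cells holding lentiviral MUTYH cDNA NNN codon-scan libraries, kept in 10 pg/ml doxycycline and co-transfected with mCherry plus an 8OG:A GFP repair reporter. Sequencing of tile amplicons gave per-tile Rosace fitness scores, normalized into a repair function score anchored on synonymous and nonsense distributions. Synonymous medians were fixed at 0, nonsense at -1, and variants under 300 counts per million at the start were removed.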
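Also: cells sorted at 72 h after reporter transfection.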

8OG:A repair function score of substitutions, site by site:
S226: W -0.231 | Q 0.176 | T -0.0677 | M -0.173 | A 0.0017 | P -0.642 | H 0.0371 | L -0.314 | I -0.309 | K 0.026 | R 0.00193 | E 0.00732 | G -0.00798 | V -0.247 | F -0.371 | N 0.261 | D -0.146 | C -0.132 | Y -0.198
I221: D -1.02 | F -0.597 | A -0.993 | V -0.347 | C -0.728 | N -0.933 | R -0.972 | K -0.986 | Q -1.03 | E -0.989 | G -0.993 | S -0.991 | W -0.622 | T -0.889 | P -1.01 | H -0.866 | M -0.523 | Y -0.63 | L -0.449
A223: E -0.219 | N -0.465 | Q -0.0573 | R 0.032 | W -0.73 | S -0.27 | V -0.38 | K -0.118 | I -0.454 | F -0.516 | C -0.145 | D -0.631 | G -0.111 | T -0.118 | M -0.321 | L -0.498 | P -0.418 | Y -0.608 | H -0.196
P225: Q -0.132 | V -0.0099 | G -0.342 | H -0.374 | A -0.238 | C -0.182 | L 0.119 | S -0.0602 | K -0.284 | T -0.0501 | R -0.147 | I 0.0375 | N -0.234 | Y 0.0138 | W -0.322 | M -0.186 | E -0.604 | D -0.53 | F -0.222
A220: R -0.747 | G -0.13 | Q -0.691 | H -0.555 | I -0.848 | N -0.671 | C -0.411 | K -0.891 | S -0.411 | W -0.836 | T -0.62 | M -0.551 | L -0.81 | Y -0.75 | V -0.57 | E -0.465 | F -0.676 | D -0.821 | P -0.978
Q233: L 0.227 | D -0.318 | V 0.335 | P -0.428 | T 0.244 | N -0.032 | K -0.089 | E -0.306 | R -0.19 | A -0.259 | C -0.188 | G -0.0523 | S 0.0726 | F 0.305 | M 0.177 | I 0.198 | H 0.461
R217: Q -1.03 | N -1.04 | K -1.03 | T -1.02 | W -0.993 | C -1.03 | E -1.03 | V -1.01 | L -1.01 | M -0.936 | Y -1.01 | P -1.04 | H -0.835 | G -1.01 | A -1.02 | F -1.04 | I -1.03 | S -1.03 | D -1.02
S231: N 0.155 | C -0.12 | L -0.0707 | Y -0.226 | A -0.0555 | K 0.154 | P -0.683 | T 0.0918 | W 0.173 | D -0.132 | V -0.0155 | G -0.125 | I -0.0202 | F -0.24 | H -0.0123 | Q -0.132 | R 0.201 | M 0.155 | E 0.0501
D224: W -0.942 | N -0.918 | F -0.955 | C -0.955 | A -0.954 | T -0.955 | R -0.978 | V -0.988 | K -0.928 | E -0.936 | M -0.995 | I -0.934 | G -0.936 | L -0.947 | S -0.964 | Y -0.939 | Q -0.87
